# From patent US20150344570A1 (published 2015)
# T1: FcγRIIa R (human, UniProt P12318 34-217)
# T1 construct: extracellular domain; also called FcgRIIa R type; 2aR
# T1 sequence (looked up): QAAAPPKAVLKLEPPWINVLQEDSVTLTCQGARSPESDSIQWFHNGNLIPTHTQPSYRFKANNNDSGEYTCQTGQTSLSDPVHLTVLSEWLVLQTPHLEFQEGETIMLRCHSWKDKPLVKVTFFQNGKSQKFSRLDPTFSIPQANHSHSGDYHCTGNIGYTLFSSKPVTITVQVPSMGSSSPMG
# Biological target: T1, FcγRIIa R
# Assay: SPR (Biacore), captured antibody, FcγR as analyte; relative binding activity
Binder,Ho/Con_2aR,He/Con_2aR
"GpH7-A5/GpH7-B3 variant N325_01G/GpL16-k0 (antibody, human IgG1, kappa, also called He Ab N325_01G) heavy 1: not shown heavy 2: not shown light: DIVMTQSPLSLPVTPGEPASISCQASESLVHSNRNTYLHWYLQKPGQSPQLLIYKVSNRFSGVPDRFSGSGSGTDFTLKISRVEAEDVGVYYCSQNTHVPPTFGQGTKVEIERTVAAPSVFIFPPSDEQLKSGTASVVCLLNNFYPREAKVQWKVDNALQSGNSQESVTEQDSKDSTYSLSSTLTLSKADYEKHKVYACEVTHQGLSSPVTKSFNRGEC",,107 % (GpH7-A5/GpH7-B3/GpL16-k0 = 100)
"GpH7-A5/GpH7-B3 variant A330_11K/GpL16-k0 (antibody, human IgG1, kappa, also called He Ab A330_11K) heavy 1: not shown heavy 2: not shown light: DIVMTQSPLSLPVTPGEPASISCQASESLVHSNRNTYLHWYLQKPGQSPQLLIYKVSNRFSGVPDRFSGSGSGTDFTLKISRVEAEDVGVYYCSQNTHVPPTFGQGTKVEIERTVAAPSVFIFPPSDEQLKSGTASVVCLLNNFYPREAKVQWKVDNALQSGNSQESVTEQDSKDSTYSLSSTLTLSKADYEKHKVYACEVTHQGLSSPVTKSFNRGEC",,110 % (GpH7-A5/GpH7-B3/GpL16-k0 = 100)
"GpH7-A5/GpH7-B3 variant A330_01G/GpL16-k0 (antibody, human IgG1, kappa, also called He Ab A330_01G) heavy 1: not shown heavy 2: not shown light: DIVMTQSPLSLPVTPGEPASISCQASESLVHSNRNTYLHWYLQKPGQSPQLLIYKVSNRFSGVPDRFSGSGSGTDFTLKISRVEAEDVGVYYCSQNTHVPPTFGQGTKVEIERTVAAPSVFIFPPSDEQLKSGTASVVCLLNNFYPREAKVQWKVDNALQSGNSQESVTEQDSKDSTYSLSSTLTLSKADYEKHKVYACEVTHQGLSSPVTKSFNRGEC",,109 % (GpH7-A5/GpH7-B3/GpL16-k0 = 100)
"GpH7-A5/GpH7-B3 variant A330_05P/GpL16-k0 (antibody, human IgG1, kappa, also called He Ab A330_05P) heavy 1: not shown heavy 2: not shown light: DIVMTQSPLSLPVTPGEPASISCQASESLVHSNRNTYLHWYLQKPGQSPQLLIYKVSNRFSGVPDRFSGSGSGTDFTLKISRVEAEDVGVYYCSQNTHVPPTFGQGTKVEIERTVAAPSVFIFPPSDEQLKSGTASVVCLLNNFYPREAKVQWKVDNALQSGNSQESVTEQDSKDSTYSLSSTLTLSKADYEKHKVYACEVTHQGLSSPVTKSFNRGEC",,115 % (GpH7-A5/GpH7-B3/GpL16-k0 = 100)
"GpH7-A5/GpH7-B3 variant A330_19Q/GpL16-k0 (antibody, human IgG1, kappa, also called He Ab A330_19Q) heavy 1: not shown heavy 2: not shown light: DIVMTQSPLSLPVTPGEPASISCQASESLVHSNRNTYLHWYLQKPGQSPQLLIYKVSNRFSGVPDRFSGSGSGTDFTLKISRVEAEDVGVYYCSQNTHVPPTFGQGTKVEIERTVAAPSVFIFPPSDEQLKSGTASVVCLLNNFYPREAKVQWKVDNALQSGNSQESVTEQDSKDSTYSLSSTLTLSKADYEKHKVYACEVTHQGLSSPVTKSFNRGEC",,104 % (GpH7-A5/GpH7-B3/GpL16-k0 = 100)
"GpH7-A5/GpH7-B3 variant A327_10E/GpL16-k0 (antibody, human IgG1, kappa, also called He Ab A327_10E) heavy 1: not shown heavy 2: not shown light: DIVMTQSPLSLPVTPGEPASISCQASESLVHSNRNTYLHWYLQKPGQSPQLLIYKVSNRFSGVPDRFSGSGSGTDFTLKISRVEAEDVGVYYCSQNTHVPPTFGQGTKVEIERTVAAPSVFIFPPSDEQLKSGTASVVCLLNNFYPREAKVQWKVDNALQSGNSQESVTEQDSKDSTYSLSSTLTLSKADYEKHKVYACEVTHQGLSSPVTKSFNRGEC",,110 % (GpH7-A5/GpH7-B3/GpL16-k0 = 100)

# Now from value to binder:
Ho/Con_2aR,He/Con_2aR,Binder
88.8 % (GpH7-B3/GpL16-k0 = 100),,"GpH7-B3 variant P271_10E/GpL16-k0 (antibody, human IgG1, kappa, also called Ho Ab P271_10E) heavy: not shown light: DIVMTQSPLSLPVTPGEPASISCQASESLVHSNRNTYLHWYLQKPGQSPQLLIYKVSNRFSGVPDRFSGSGSGTDFTLKISRVEAEDVGVYYCSQNTHVPPTFGQGTKVEIERTVAAPSVFIFPPSDEQLKSGTASVVCLLNNFYPREAKVQWKVDNALQSGNSQESVTEQDSKDSTYSLSSTLTLSKADYEKHKVYACEVTHQGLSSPVTKSFNRGEC"
,103 % (GpH7-A5/GpH7-B3/GpL16-k0 = 100),"GpH7-A5/GpH7-B3 variant E333_08L/GpL16-k0 (antibody, human IgG1, kappa, also called He Ab E333_08L) heavy 1: not shown heavy 2: not shown light: DIVMTQSPLSLPVTPGEPASISCQASESLVHSNRNTYLHWYLQKPGQSPQLLIYKVSNRFSGVPDRFSGSGSGTDFTLKISRVEAEDVGVYYCSQNTHVPPTFGQGTKVEIERTVAAPSVFIFPPSDEQLKSGTASVVCLLNNFYPREAKVQWKVDNALQSGNSQESVTEQDSKDSTYSLSSTLTLSKADYEKHKVYACEVTHQGLSSPVTKSFNRGEC"
106 % (GpH7-B3/GpL16-k0 = 100),,"GpH7-B3 variant P331_04F/GpL16-k0 (antibody, human IgG1, kappa, also called Ho Ab P331_04F) heavy: not shown light: DIVMTQSPLSLPVTPGEPASISCQASESLVHSNRNTYLHWYLQKPGQSPQLLIYKVSNRFSGVPDRFSGSGSGTDFTLKISRVEAEDVGVYYCSQNTHVPPTFGQGTKVEIERTVAAPSVFIFPPSDEQLKSGTASVVCLLNNFYPREAKVQWKVDNALQSGNSQESVTEQDSKDSTYSLSSTLTLSKADYEKHKVYACEVTHQGLSSPVTKSFNRGEC"
,105 % (GpH7-A5/GpH7-B3/GpL16-k0 = 100),"GpH7-A5/GpH7-B3 variant E333_05P/GpL16-k0 (antibody, human IgG1, kappa, also called He Ab E333_05P) heavy 1: not shown heavy 2: not shown light: DIVMTQSPLSLPVTPGEPASISCQASESLVHSNRNTYLHWYLQKPGQSPQLLIYKVSNRFSGVPDRFSGSGSGTDFTLKISRVEAEDVGVYYCSQNTHVPPTFGQGTKVEIERTVAAPSVFIFPPSDEQLKSGTASVVCLLNNFYPREAKVQWKVDNALQSGNSQESVTEQDSKDSTYSLSSTLTLSKADYEKHKVYACEVTHQGLSSPVTKSFNRGEC"
,104 % (GpH7-A5/GpH7-B3/GpL16-k0 = 100),"GpH7-A5/GpH7-B3 variant E333_07I/GpL16-k0 (antibody, human IgG1, kappa, also called He Ab E333_07I) heavy 1: not shown heavy 2: not shown light: DIVMTQSPLSLPVTPGEPASISCQASESLVHSNRNTYLHWYLQKPGQSPQLLIYKVSNRFSGVPDRFSGSGSGTDFTLKISRVEAEDVGVYYCSQNTHVPPTFGQGTKVEIERTVAAPSVFIFPPSDEQLKSGTASVVCLLNNFYPREAKVQWKVDNALQSGNSQESVTEQDSKDSTYSLSSTLTLSKADYEKHKVYACEVTHQGLSSPVTKSFNRGEC"
